How the values were obtained:
human integrin α10 = biological target: T1, human integrin α10 (human, UniProt O75578 23-1167); experiment: FACS on human integrin α10 introduced CHO cells
T1 construct: whole, on cells
T1 sequence (looked up): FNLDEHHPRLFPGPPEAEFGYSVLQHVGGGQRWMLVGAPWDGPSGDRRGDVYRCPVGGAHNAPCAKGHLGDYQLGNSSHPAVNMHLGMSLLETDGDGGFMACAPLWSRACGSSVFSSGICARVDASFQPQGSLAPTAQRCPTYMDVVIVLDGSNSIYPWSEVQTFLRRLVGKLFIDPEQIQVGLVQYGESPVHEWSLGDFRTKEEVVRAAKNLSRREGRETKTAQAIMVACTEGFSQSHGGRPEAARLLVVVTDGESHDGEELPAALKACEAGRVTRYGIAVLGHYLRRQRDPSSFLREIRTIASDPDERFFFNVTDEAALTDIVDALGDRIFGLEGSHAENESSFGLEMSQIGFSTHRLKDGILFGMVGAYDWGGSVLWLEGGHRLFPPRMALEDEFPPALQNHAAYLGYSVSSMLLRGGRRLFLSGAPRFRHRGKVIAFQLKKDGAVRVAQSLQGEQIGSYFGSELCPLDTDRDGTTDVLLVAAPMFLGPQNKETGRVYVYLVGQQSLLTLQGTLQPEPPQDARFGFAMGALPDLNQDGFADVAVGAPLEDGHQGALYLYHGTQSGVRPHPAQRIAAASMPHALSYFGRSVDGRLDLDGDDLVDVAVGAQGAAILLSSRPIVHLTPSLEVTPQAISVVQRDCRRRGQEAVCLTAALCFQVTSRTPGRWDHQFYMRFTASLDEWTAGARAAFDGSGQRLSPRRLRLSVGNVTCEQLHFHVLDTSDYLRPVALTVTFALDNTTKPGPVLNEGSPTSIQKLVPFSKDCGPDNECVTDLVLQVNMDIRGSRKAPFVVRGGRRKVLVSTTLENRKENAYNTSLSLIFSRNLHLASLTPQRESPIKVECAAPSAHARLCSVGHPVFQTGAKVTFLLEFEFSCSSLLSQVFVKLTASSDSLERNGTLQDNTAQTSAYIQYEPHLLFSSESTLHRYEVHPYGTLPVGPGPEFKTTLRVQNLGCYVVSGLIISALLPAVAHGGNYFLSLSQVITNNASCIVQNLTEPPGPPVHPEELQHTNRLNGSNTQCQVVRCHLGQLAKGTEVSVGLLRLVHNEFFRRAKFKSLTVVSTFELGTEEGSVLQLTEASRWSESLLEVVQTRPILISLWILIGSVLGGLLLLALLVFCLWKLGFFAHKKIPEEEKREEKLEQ
Experimental: (§1) Reactivity (specificity) with respect to α11 in the antibody which has been converted into IgG was analyzed based on presence or absence of reactivity with respect to other collagen binding integrins α1, α2, and α10. First, reactivity of the antibody with respect to the CHO cell and the human integrin α11 introduced CHO cell was analyzed by FACS. Subsequently, reactivity of the antibody with respect to a human colorectal carcinoma cell line (SW480 cell: cell line expressing endogenous α1 and α2) and a human integrin α10 introduced CHO cell was analyzed by FACS. The reaction conditions of FACS using the IgG antibody are as follows. That is, the antibody as a primary antibody was added to a cell at a concentration of 5 μg/ml to react with the cell on ice for 25 minutes. After washing, PE labeled anti-mouse IgG antibody as a secondary antibody was added to the cell at a concentration of 2 μg/ml to react with the cell on ice for 15 minutes. The subsequent FACS processes were carried out under the same conditions.

[1] = biological target: T2, integrin α2 (endogenous on human colorectal carcinoma SW480 cells) (human, UniProt P17301 30-1181); experiment: FACS on SW480 cells expressing endogenous α1 and α2
T2 construct: whole, on cells
T2 sequence (looked up): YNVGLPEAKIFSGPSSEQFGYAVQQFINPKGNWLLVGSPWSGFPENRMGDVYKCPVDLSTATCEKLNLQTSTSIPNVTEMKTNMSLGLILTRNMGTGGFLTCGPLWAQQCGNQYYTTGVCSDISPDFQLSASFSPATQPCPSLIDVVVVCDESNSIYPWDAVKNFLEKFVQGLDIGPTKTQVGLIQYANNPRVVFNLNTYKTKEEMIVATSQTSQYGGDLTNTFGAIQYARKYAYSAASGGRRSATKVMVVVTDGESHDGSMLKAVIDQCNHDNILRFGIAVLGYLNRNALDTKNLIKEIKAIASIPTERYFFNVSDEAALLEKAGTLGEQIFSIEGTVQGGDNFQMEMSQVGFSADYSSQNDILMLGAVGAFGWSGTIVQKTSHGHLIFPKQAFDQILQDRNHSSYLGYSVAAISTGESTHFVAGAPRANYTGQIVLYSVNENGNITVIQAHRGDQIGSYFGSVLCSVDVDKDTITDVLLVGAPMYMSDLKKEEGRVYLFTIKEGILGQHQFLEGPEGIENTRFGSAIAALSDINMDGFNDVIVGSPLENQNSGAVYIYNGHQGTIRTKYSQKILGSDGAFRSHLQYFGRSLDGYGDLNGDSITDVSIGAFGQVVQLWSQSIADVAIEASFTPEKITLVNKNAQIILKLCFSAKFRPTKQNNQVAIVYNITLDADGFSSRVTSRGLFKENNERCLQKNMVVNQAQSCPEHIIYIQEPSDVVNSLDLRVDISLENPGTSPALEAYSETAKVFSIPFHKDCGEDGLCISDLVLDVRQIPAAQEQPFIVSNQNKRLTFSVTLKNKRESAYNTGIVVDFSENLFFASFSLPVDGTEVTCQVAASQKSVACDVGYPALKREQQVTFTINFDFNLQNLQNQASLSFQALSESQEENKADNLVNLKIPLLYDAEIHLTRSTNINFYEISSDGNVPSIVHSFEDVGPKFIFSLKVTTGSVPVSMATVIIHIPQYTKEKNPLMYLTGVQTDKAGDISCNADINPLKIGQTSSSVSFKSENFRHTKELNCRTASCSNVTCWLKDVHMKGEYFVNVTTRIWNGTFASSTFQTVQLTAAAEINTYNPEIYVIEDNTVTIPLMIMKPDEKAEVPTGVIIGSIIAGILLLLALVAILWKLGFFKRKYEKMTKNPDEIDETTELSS
Experimental: as §1

[2] = biological target: T3, integrin α1 (endogenous on human colorectal carcinoma SW480 cells) (human, UniProt P56199 29-1179); experiment: as above
T3 construct: whole, on cells
T3 sequence (looked up): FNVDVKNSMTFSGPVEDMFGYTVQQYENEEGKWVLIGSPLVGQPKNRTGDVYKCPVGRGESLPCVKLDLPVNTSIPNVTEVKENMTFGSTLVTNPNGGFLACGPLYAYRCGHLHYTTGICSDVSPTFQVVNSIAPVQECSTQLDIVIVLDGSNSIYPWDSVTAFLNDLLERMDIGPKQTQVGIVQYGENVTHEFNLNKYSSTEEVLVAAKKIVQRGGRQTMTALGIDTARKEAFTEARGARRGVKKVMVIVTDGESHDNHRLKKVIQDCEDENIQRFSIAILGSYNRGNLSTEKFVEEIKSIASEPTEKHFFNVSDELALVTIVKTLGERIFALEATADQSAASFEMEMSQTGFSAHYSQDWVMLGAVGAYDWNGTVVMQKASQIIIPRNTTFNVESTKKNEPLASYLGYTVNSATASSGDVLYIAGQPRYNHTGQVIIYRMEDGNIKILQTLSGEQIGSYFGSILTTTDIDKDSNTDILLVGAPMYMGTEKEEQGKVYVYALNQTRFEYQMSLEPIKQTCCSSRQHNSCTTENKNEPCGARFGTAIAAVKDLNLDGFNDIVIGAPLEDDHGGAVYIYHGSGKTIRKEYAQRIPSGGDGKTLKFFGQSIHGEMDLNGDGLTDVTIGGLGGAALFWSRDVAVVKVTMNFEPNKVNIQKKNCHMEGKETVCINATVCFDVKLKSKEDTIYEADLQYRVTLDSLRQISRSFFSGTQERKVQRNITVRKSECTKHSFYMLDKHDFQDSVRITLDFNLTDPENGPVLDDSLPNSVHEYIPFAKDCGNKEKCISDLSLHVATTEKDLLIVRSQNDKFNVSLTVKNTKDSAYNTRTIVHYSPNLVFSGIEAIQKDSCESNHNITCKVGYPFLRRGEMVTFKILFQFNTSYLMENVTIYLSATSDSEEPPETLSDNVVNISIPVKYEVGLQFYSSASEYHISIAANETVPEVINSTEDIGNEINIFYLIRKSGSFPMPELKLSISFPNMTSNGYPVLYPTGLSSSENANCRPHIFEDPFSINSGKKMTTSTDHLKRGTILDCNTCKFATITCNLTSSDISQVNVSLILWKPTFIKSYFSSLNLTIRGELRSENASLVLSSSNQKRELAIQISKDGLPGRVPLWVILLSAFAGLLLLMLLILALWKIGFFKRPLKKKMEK
Experimental: as §1

Measured: binding result

B1: wild-type #33 IgG (anti-integrin α11 monoclonal antibody, chicken-mouse chimeric IgG1) (antibody, V domains shown)
VH: AVTLDESGGGLQTPGGALSLVCKGSGFTFSSYGMQWVRQAPGRGLEWVAGIDDDGSFTLYGAAVDGRATISRDNGQTTVRLQLSDLRAEDTATYFCAKGGYGYCWYGDAACIDAWGHGTEVIVSS
VL: AVTQPSSVSANPGETVKITCSGGSDSWYGWYQQKSPGSAPVTVIYSNNQRPSNIPSRFSGSTSGSTSTLTITGVQADDEAVYFCGSRDSSYDGIFGAGTTLTVLK
notes: Chicken VH linked to a mouse IgG1 constant region and chicken VL linked to a mouse Igκ region; His-tagged at the C-terminal; also called the antibody
no binding (tested: 5 µg/ml): all assays above
